# Data: patent publication US20250084142A1 (INTARCIA THERAPEUTICS, published 2025)
# Starred links: 1 amine or outer side, 2 acyl side, 3 side chain; linkers in the order of their positions; H or OH if unused. Non-standard residues stand in square brackets, D forms with d. Groups on a side chain read outwards from the residue. No end group written: not given here. *: point of attachment. C20 diacid = O=C(O)CCCCCCCCCCCCCCCCCCC(=O)*; γGlu = O=C(O)[C@H](CCC(=O)[*:2])N[*:1]; NMeY = CN[C@@H](Cc1ccc(O)cc1)C(=O)O
# B1: Compound A6 (peptide)
# peptide: PKPK([γGlu-γGlu-C20 diacid])APGKDASPEEWNRYYADARHYLNWLTRQR[NMeY]-NH2
# modifications: N-terminus assumed
# SMILES: CC(C)C[C@H](NC(=O)[C@H](Cc1ccc(O)cc1)NC(=O)[C@H](Cc1c[nH]cn1)NC(=O)[C@H](CCCNC(=N)N)NC(=O)[C@H](C)NC(=O)[C@H](CC(=O)O)NC(=O)[C@H](C)NC(=O)[C@H](Cc1ccc(O)cc1)NC(=O)[C@H](Cc1ccc(O)cc1)NC(=O)[C@H](CCCNC(=N)N)NC(=O)[C@H](CC(N)=O)NC(=O)[C@H](Cc1c[nH]c2ccccc12)NC(=O)[C@H](CCC(=O)O)NC(=O)[C@H](CCC(=O)O)NC(=O)[C@@H]1CCCN1C(=O)[C@H](CO)NC(=O)[C@H](C)NC(=O)[C@H](CC(=O)O)NC(=O)[C@H](CCCCN)NC(=O)CNC(=O)[C@@H]1CCCN1C(=O)[C@H](C)NC(=O)[C@H](CCCCNC(=O)CC[C@H](NC(=O)CC[C@H](NC(=O)CCCCCCCCCCCCCCCCCCC(=O)O)C(=O)O)C(=O)O)NC(=O)[C@@H]1CCCN1C(=O)[C@H](CCCCN)NC(=O)[C@@H]1CCCN1)C(=O)N[C@@H](CC(N)=O)C(=O)N[C@@H](Cc1c[nH]c2ccccc12)C(=O)N[C@@H](CC(C)C)C(=O)N[C@H](C(=O)N[C@@H](CCCNC(=N)N)C(=O)N[C@@H](CCC(N)=O)C(=O)N[C@@H](CCCNC(=N)N)C(=O)N(C)[C@@H](Cc1ccc(O)cc1)C(N)=O)[C@@H](C)O
# B2: Compound A71 (peptide)
# peptide: PKPEK([γGlu-γGlu-C20 diacid])PGKDASPKEWNRYYKDLRHYLNWLTRQRF-NH2
# modifications: N-terminus assumed
# SMILES: CC(C)C[C@H](NC(=O)[C@H](CC(=O)O)NC(=O)[C@H](CCCCN)NC(=O)[C@H](Cc1ccc(O)cc1)NC(=O)[C@H](Cc1ccc(O)cc1)NC(=O)[C@H](CCCNC(=N)N)NC(=O)[C@H](CC(N)=O)NC(=O)[C@H](Cc1c[nH]c2ccccc12)NC(=O)[C@H](CCC(=O)O)NC(=O)[C@H](CCCCN)NC(=O)[C@@H]1CCCN1C(=O)[C@H](CO)NC(=O)[C@H](C)NC(=O)[C@H](CC(=O)O)NC(=O)[C@H](CCCCN)NC(=O)CNC(=O)[C@@H]1CCCN1C(=O)[C@H](CCCCNC(=O)CC[C@H](NC(=O)CC[C@H](NC(=O)CCCCCCCCCCCCCCCCCCC(=O)O)C(=O)O)C(=O)O)NC(=O)[C@H](CCC(=O)O)NC(=O)[C@@H]1CCCN1C(=O)[C@H](CCCCN)NC(=O)[C@@H]1CCCN1)C(=O)N[C@@H](CCCNC(=N)N)C(=O)N[C@@H](Cc1c[nH]cn1)C(=O)N[C@@H](Cc1ccc(O)cc1)C(=O)N[C@@H](CC(C)C)C(=O)N[C@@H](CC(N)=O)C(=O)N[C@@H](Cc1c[nH]c2ccccc12)C(=O)N[C@@H](CC(C)C)C(=O)N[C@H](C(=O)N[C@@H](CCCNC(=N)N)C(=O)N[C@@H](CCC(N)=O)C(=O)N[C@@H](CCCNC(=N)N)C(=O)N[C@@H](Cc1ccccc1)C(N)=O)[C@@H](C)O
# B3: Compound A5 (peptide)
# peptide: PK([γGlu-γGlu-C20 diacid])PEAPGKDASPEEWNRYYADARHYLNWLTRQR[NMeY]-NH2
# modifications: N-terminus assumed
# SMILES: CC(C)C[C@H](NC(=O)[C@H](Cc1ccc(O)cc1)NC(=O)[C@H](Cc1c[nH]cn1)NC(=O)[C@H](CCCNC(=N)N)NC(=O)[C@H](C)NC(=O)[C@H](CC(=O)O)NC(=O)[C@H](C)NC(=O)[C@H](Cc1ccc(O)cc1)NC(=O)[C@H](Cc1ccc(O)cc1)NC(=O)[C@H](CCCNC(=N)N)NC(=O)[C@H](CC(N)=O)NC(=O)[C@H](Cc1c[nH]c2ccccc12)NC(=O)[C@H](CCC(=O)O)NC(=O)[C@H](CCC(=O)O)NC(=O)[C@@H]1CCCN1C(=O)[C@H](CO)NC(=O)[C@H](C)NC(=O)[C@H](CC(=O)O)NC(=O)[C@H](CCCCN)NC(=O)CNC(=O)[C@@H]1CCCN1C(=O)[C@H](C)NC(=O)[C@H](CCC(=O)O)NC(=O)[C@@H]1CCCN1C(=O)[C@H](CCCCNC(=O)CC[C@H](NC(=O)CC[C@H](NC(=O)CCCCCCCCCCCCCCCCCCC(=O)O)C(=O)O)C(=O)O)NC(=O)[C@@H]1CCCN1)C(=O)N[C@@H](CC(N)=O)C(=O)N[C@@H](Cc1c[nH]c2ccccc12)C(=O)N[C@@H](CC(C)C)C(=O)N[C@H](C(=O)N[C@@H](CCCNC(=N)N)C(=O)N[C@@H](CCC(N)=O)C(=O)N[C@@H](CCCNC(=N)N)C(=O)N(C)[C@@H](Cc1ccc(O)cc1)C(N)=O)[C@@H](C)O
# B4: Compound A78 (peptide)
# peptide: PKPEK([γGlu-γGlu-C20 diacid])PGEDASPKEWDRYYKDLRHYLNWLTRQRF-NH2
# modifications: N-terminus assumed
# SMILES: CC(C)C[C@H](NC(=O)[C@H](CC(=O)O)NC(=O)[C@H](CCCCN)NC(=O)[C@H](Cc1ccc(O)cc1)NC(=O)[C@H](Cc1ccc(O)cc1)NC(=O)[C@H](CCCNC(=N)N)NC(=O)[C@H](CC(=O)O)NC(=O)[C@H](Cc1c[nH]c2ccccc12)NC(=O)[C@H](CCC(=O)O)NC(=O)[C@H](CCCCN)NC(=O)[C@@H]1CCCN1C(=O)[C@H](CO)NC(=O)[C@H](C)NC(=O)[C@H](CC(=O)O)NC(=O)[C@H](CCC(=O)O)NC(=O)CNC(=O)[C@@H]1CCCN1C(=O)[C@H](CCCCNC(=O)CC[C@H](NC(=O)CC[C@H](NC(=O)CCCCCCCCCCCCCCCCCCC(=O)O)C(=O)O)C(=O)O)NC(=O)[C@H](CCC(=O)O)NC(=O)[C@@H]1CCCN1C(=O)[C@H](CCCCN)NC(=O)[C@@H]1CCCN1)C(=O)N[C@@H](CCCNC(=N)N)C(=O)N[C@@H](Cc1c[nH]cn1)C(=O)N[C@@H](Cc1ccc(O)cc1)C(=O)N[C@@H](CC(C)C)C(=O)N[C@@H](CC(N)=O)C(=O)N[C@@H](Cc1c[nH]c2ccccc12)C(=O)N[C@@H](CC(C)C)C(=O)N[C@H](C(=O)N[C@@H](CCCNC(=N)N)C(=O)N[C@@H](CCC(N)=O)C(=O)N[C@@H](CCCNC(=N)N)C(=O)N[C@@H](Cc1ccccc1)C(N)=O)[C@@H](C)O
# B5: Compound A74 (peptide)
# peptide: PKPEKPGK([γGlu-γGlu-C20 diacid])DASPEEWNRYYKDLRHYLNWLTRQRF-NH2
# modifications: N-terminus assumed
# SMILES: CC(C)C[C@H](NC(=O)[C@H](CC(=O)O)NC(=O)[C@H](CCCCN)NC(=O)[C@H](Cc1ccc(O)cc1)NC(=O)[C@H](Cc1ccc(O)cc1)NC(=O)[C@H](CCCNC(=N)N)NC(=O)[C@H](CC(N)=O)NC(=O)[C@H](Cc1c[nH]c2ccccc12)NC(=O)[C@H](CCC(=O)O)NC(=O)[C@H](CCC(=O)O)NC(=O)[C@@H]1CCCN1C(=O)[C@H](CO)NC(=O)[C@H](C)NC(=O)[C@H](CC(=O)O)NC(=O)[C@H](CCCCNC(=O)CC[C@H](NC(=O)CC[C@H](NC(=O)CCCCCCCCCCCCCCCCCCC(=O)O)C(=O)O)C(=O)O)NC(=O)CNC(=O)[C@@H]1CCCN1C(=O)[C@H](CCCCN)NC(=O)[C@H](CCC(=O)O)NC(=O)[C@@H]1CCCN1C(=O)[C@H](CCCCN)NC(=O)[C@@H]1CCCN1)C(=O)N[C@@H](CCCNC(=N)N)C(=O)N[C@@H](Cc1c[nH]cn1)C(=O)N[C@@H](Cc1ccc(O)cc1)C(=O)N[C@@H](CC(C)C)C(=O)N[C@@H](CC(N)=O)C(=O)N[C@@H](Cc1c[nH]c2ccccc12)C(=O)N[C@@H](CC(C)C)C(=O)N[C@H](C(=O)N[C@@H](CCCNC(=N)N)C(=O)N[C@@H](CCC(N)=O)C(=O)N[C@@H](CCCNC(=N)N)C(=O)N[C@@H](Cc1ccccc1)C(N)=O)[C@@H](C)O
# Target: T1, NPY5R
# T1 sequence (Q15761 1-445, species assumed, looked up): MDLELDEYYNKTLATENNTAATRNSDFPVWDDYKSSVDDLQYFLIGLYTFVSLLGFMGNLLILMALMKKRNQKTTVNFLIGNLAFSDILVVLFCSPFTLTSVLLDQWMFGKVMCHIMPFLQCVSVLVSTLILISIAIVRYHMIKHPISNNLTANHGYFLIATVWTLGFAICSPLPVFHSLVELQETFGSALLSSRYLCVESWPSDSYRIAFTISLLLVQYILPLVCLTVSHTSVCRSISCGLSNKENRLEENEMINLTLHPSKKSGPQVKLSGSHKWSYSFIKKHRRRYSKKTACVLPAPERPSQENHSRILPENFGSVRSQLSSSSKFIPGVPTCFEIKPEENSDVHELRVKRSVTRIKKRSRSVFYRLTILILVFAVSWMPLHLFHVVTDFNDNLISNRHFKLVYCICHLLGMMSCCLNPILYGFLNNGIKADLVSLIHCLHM
# Assay: cell-based or functional assay
row,Binder,NPY5R pEC50
1,PKPEAPGK([γGlu-γGlu-C20 diacid])DASPKEWDRYYKDLRHYLNWLTRQRF-NH2 [Compound A76],"8.9 -Log(EC50, M)"
2,B1,"7.7 -Log(EC50, M)"
3,PKPEAPGK([γGlu-γGlu-C20 diacid])DASPKEWNRYYKDLRHYLNWLTRQRF-NH2 [Compound A73],"8.6 -Log(EC50, M)"
4,B2,"8.8 -Log(EC50, M)"
5,B3,"8 -Log(EC50, M)"
6,B4,"8.5 -Log(EC50, M)"
7,B5,"9 -Log(EC50, M)"

# Target: T2, NPY2R
# T2 sequence (P49146 1-381, species assumed, looked up): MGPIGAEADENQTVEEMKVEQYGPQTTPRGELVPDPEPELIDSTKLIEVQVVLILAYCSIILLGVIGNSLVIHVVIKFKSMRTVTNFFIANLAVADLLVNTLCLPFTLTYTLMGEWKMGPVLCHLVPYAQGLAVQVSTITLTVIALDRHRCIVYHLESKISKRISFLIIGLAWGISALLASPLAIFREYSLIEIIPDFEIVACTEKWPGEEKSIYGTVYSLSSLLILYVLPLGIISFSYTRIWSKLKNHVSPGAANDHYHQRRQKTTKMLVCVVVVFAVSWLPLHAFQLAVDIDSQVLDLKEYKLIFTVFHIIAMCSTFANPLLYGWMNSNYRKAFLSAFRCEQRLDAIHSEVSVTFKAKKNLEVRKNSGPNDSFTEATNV
# Assay: cell-based or functional assay
row,Binder,NPY2R pEC50
1,PKPEAPGK([γGlu-γGlu-C20 diacid])DASPKEWDRYYKDLRHYLNWLTRQRF-NH2 [Compound A76],"10.4 -Log(EC50, M)"
2,B1,"8.9 -Log(EC50, M)"
3,PKPEAPGK([γGlu-γGlu-C20 diacid])DASPKEWNRYYKDLRHYLNWLTRQRF-NH2 [Compound A73],"10.3 -Log(EC50, M)"
4,B2,"10.7 -Log(EC50, M)"
5,B3,"7.7 -Log(EC50, M)"
6,B4,"10.2 -Log(EC50, M)"
7,B5,"10.3 -Log(EC50, M)"
